Laboratory results published in patent US20150147336A1.

How the values were obtained:
IFNα2a (human) = IFNα2a (human) (UniProt P01563); experiment: cell-based or functional assay
human leukocyte IFN = experiment: cell-based or functional assay

HERC5 gene expression (TAQMAN, Average) in whole blood of donor 107 with 100 IU IFNα2a + MEDI-545; same donor VEH 1.00, IFN alone 41.12 (relative expression (Average)) (IFNα2a (human)): 6.29 | HERC5 gene expression (TAQMAN, Average) in whole blood of donor 163 with 100 IU IFNα2a + MEDI-545; same donor VEH 1.05, IFN alone 75.81 (relative expression (Average)) (IFNα2a (human)): 7.83 | HERC5 gene expression (TAQMAN, Average) in whole blood of donor 175 with 100 IU IFNα2a + MEDI-545; same donor VEH 1.19, IFN alone 74.58 (relative expression (Average)) (IFNα2a (human)): 6.89 | IFN α2a-induced IFIT1 gene expression in whole blood (TAQMAN), sample 107 IFN + 545 (107 IFN 80.21; 107 VEH 1.00) (relative expression (Average)) (IFNα2a (human)): 13.1 | IFN α2a-induced IFIT1 gene expression in whole blood (TAQMAN), sample 163 IFN + 545 (163 IFN 51.65; 163 VEH 0.92) (relative expression (Average)) (IFNα2a (human)): 7.6 | IFN α2a-induced IFIT1 gene expression in whole blood (TAQMAN), sample 175 IFN + 545 (175 IFN 82.98; 175 VEH 1.47) (relative expression (Average)) (IFNα2a (human)): 8.4 | IFN α2a-induced IFIT3 gene expression in whole blood (TAQMAN), sample 107 IFN + 545 (107 IFN 38.43; 107 VEH 1.00) (relative expression (Average)) (IFNα2a (human)): 6.78 | IFN α2a-induced IFIT3 gene expression in whole blood (TAQMAN), sample 163 IFN + 545 (163 IFN 25.94; 163 VEH 0.62) (relative expression (Average)) (IFNα2a (human)): 4.58 | IFN α2a-induced IFIT3 gene expression in whole blood (TAQMAN), sample 175 IFN + 545 (175 IFN 35.02; 175 VEH 1.32) (relative expression (Average)) (IFNα2a (human)): 5.28 | IFN α2a-induced IL6ST gene expression in whole blood (TAQMAN), sample 107 IFN + 545 (107 IFN 3.54; 107 VEH 1.00) (relative expression (Average)) (IFNα2a (human)): 2.62 | IFN α2a-induced IL6ST gene expression in whole blood (TAQMAN), sample 163 IFN + 545 (163 IFN 7.69; 163 VEH 2.50) (relative expression (Average)) (IFNα2a (human)): 4.18 | IFN α2a-induced IL6ST gene expression in whole blood (TAQMAN), sample 175 IFN + 545 (175 IFN 7.62; 175 VEH 1.37) (relative expression (Average)) (IFNα2a (human)): 2.95 | IFN α2a-induced IRF7 gene expression in whole blood (TAQMAN), sample 107 IFN + 545 (107 IFN 18.53; 107 VEH 1.00) (relative expression (Average)) (IFNα2a (human)): 3.42 | IFN α2a-induced IRF7 gene expression in whole blood (TAQMAN), sample 163 IFN + 545 (163 IFN 17.16; 163 VEH 0.91) (relative expression (Average)) (IFNα2a (human)): 2.92 | IFN α2a-induced IRF7 gene expression in whole blood (TAQMAN), sample 175 IFN + 545 (175 IFN 24.65; 175 VEH 1.25) (relative expression (Average)) (IFNα2a (human)): 2.43 | IFN α2a-induced LY6E gene expression in whole blood (TAQMAN), sample 107 IFN + 545 (107 IFN 19.09; 107 VEH 1.00) (relative expression (Average)) (IFNα2a (human)): 3.5 | IFN α2a-induced LY6E gene expression in whole blood (TAQMAN), sample 163 IFN + 545 (163 IFN 13.52; 163 VEH 1.02) (relative expression (Average)) (IFNα2a (human)): 4.8 | IFN α2a-induced LY6E gene expression in whole blood (TAQMAN), sample 175 IFN + 545 (175 IFN 19.32; 175 VEH 1.61) (relative expression (Average)) (IFNα2a (human)): 3.74 | IFN α2a-induced MARCKS gene expression in whole blood (TAQMAN), sample 163 IFN + 545 (163 IFN 2.59; 163 VEH 0.56) (relative expression (Average)) (IFNα2a (human)): 1.55 | IFN α2a-induced MARCKS gene expression in whole blood (TAQMAN), sample 175 IFN + 545 (175 IFN 2.59; 175 VEH 0.41) (relative expression (Average)) (IFNα2a (human)): 0.55 | IFN α2a-induced RAB8B gene expression in whole blood (TAQMAN), sample 163 IFN + 545 (163 IFN 2.20; 163 VEH 0.70) (relative expression (Average)) (IFNα2a (human)): 1.18 | IFN α2a-induced RAB8B gene expression in whole blood (TAQMAN), sample 175 IFN + 545 (175 IFN 2.63; 175 VEH 0.64) (relative expression (Average)) (IFNα2a (human)): 1.15 | OAS1 gene expression (TAQMAN, Average) in whole blood of donor 107 with 100 IU IFNα2a + MEDI-545; same donor VEH 1.00, IFN alone 15.11 (relative expression (Average)) (IFNα2a (human)): 3.45 | OAS1 gene expression (TAQMAN, Average) in whole blood of donor 163 with 100 IU IFNα2a + MEDI-545; same donor VEH 0.77, IFN alone 14.19 (relative expression (Average)) (IFNα2a (human)): 3.05 | OAS1 gene expression (TAQMAN, Average) in whole blood of donor 175 with 100 IU IFNα2a + MEDI-545; same donor VEH 1.62, IFN alone 22.09 (relative expression (Average)) (IFNα2a (human)): 4.04 | OAS3 gene expression (TAQMAN, Average) in whole blood of donor 107 with 100 IU IFNα2a + MEDI-545; same donor VEH 1.00, IFN alone 49.04 (relative expression (Average)) (IFNα2a (human)): 7.03 | OAS3 gene expression (TAQMAN, Average) in whole blood of donor 163 with 100 IU IFNα2a + MEDI-545; same donor VEH 0.49, IFN alone 42.01 (relative expression (Average)) (IFNα2a (human)): 14.6 | OAS3 gene expression (TAQMAN, Average) in whole blood of donor 175 with 100 IU IFNα2a + MEDI-545; same donor VEH 1.27, IFN alone 37.87 (relative expression (Average)) (IFNα2a (human)): 3.92 | RSAD2 gene expression (TAQMAN, Average) in whole blood of donor 107 with 100 IU IFNα2a + MEDI-545; same donor VEH 1.00, IFN alone 109.64 (relative expression (Average)) (IFNα2a (human)): 9.88 | RSAD2 gene expression (TAQMAN, Average) in whole blood of donor 163 with 100 IU IFNα2a + MEDI-545; same donor VEH 0.56, IFN alone 71.47 (relative expression (Average)) (IFNα2a (human)): 4.39 | RSAD2 gene expression (TAQMAN, Average) in whole blood of donor 175 with 100 IU IFNα2a + MEDI-545; same donor VEH 1.88, IFN alone 126.27 (relative expression (Average)) (IFNα2a (human)): 8.43 | neutralization of overexpression of ISG15, USP18 and IFIT2 in keratinocytes stimulated with 150 I.U./mL leukocyte IFN (human leukocyte IFN): 70 to 100%
Substance: MEDI-545 (antibody)
